Results: the supplement of paper PMC10567573

B1: FAM98B (parent)
chain: QLDKNSEVYQEVQAMFDTLGIPKS

Variants of: B1
Test: protein stability index of a GFP-peptide fusion (GPS, HEK-293T) (PSI 1-6); higher = more stable
Conditions: c terminus: a fixed tail appended
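Note: lentivirally expressed fusions sorted by FACS into six bins by GFP to DsRed ratio, PSI derived from sequencing read proportions per bin multiplied by bin number.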

Variant | protein stability index
QLDKNSSVYQEVQAMFDTLGIPKS [E7S] | 2.77
QLDKNSIVYQEVQAMFDTLGIPKS [E7I] | 1.99
QLDKNSAVYQEVQAMFDTLGIPKS [E7A] | 3.44
QLDKNSLVYQEVQAMFDTLGIPKS [E7L] | 3.05
QLDKNSMVYQEVQAMFDTLGIPKS [E7M] | 3.01
QLDKNSCVYQEVQAMFDTLGIPKS [E7C] | 2.62
QLDKNSHVYQEVQAMFDTLGIPKS [E7H] | 2.51
QLDKNSDVYQEVQAMFDTLGIPKS [E7D] | 3.86
QLDKNSKVYQEVQAMFDTLGIPKS [E7K] | 3.06
QLDKNSFVYQEVQAMFDTLGIPKS [E7F] | 2.39
QLDKNSGVYQEVQAMFDTLGIPKS [E7G] | 2.97
QLDKNSRVYQEVQAMFDTLGIPKS [E7R] | 2.87
QLDKNSWVYQEVQAMFDTLGIPKS [E7W] | 2.13
QLDKNSTVYQEVQAMFDTLGIPKS [E7T] | 2.83
QLDKNSNVYQEVQAMFDTLGIPKS [E7N] | 3.2
QLDKNSQVYQEVQAMFDTLGIPKS [E7Q] | 2.81
QLDKNSVVYQEVQAMFDTLGIPKS [E7V] | 2.58
QLDKNSPVYQEVQAMFDTLGIPKS [E7P] | 2.58
QLDKNSYVYQEVQAMFDTLGIPKS [E7Y] | 2.26
QLDKNSEVYKEVQAMFDTLGIPKS [Q10K] | 2.53
QLDKNSEVYGEVQAMFDTLGIPKS [Q10G] | 3.01
QLDKNSEVYDEVQAMFDTLGIPKS [Q10D] | 3.75
QLDKNSEVYSEVQAMFDTLGIPKS [Q10S] | 3.58
QLDKNSEVYVEVQAMFDTLGIPKS [Q10V] | 2.08

Variant | protein stability index
QLDKNSEVYAEVQAMFDTLGIPKS [Q10A] | 3.01
QLDKNSEVYREVQAMFDTLGIPKS [Q10R] | 2.29
QLDKNSEVYNEVQAMFDTLGIPKS [Q10N] | 3.07
QLDKNSEVYCEVQAMFDTLGIPKS [Q10C] | 2.63
QLDKNSEVYHEVQAMFDTLGIPKS [Q10H] | 2.75
QLDKNSEVYEEVQAMFDTLGIPKS [Q10E] | 3.57
QLDKNSEVYYEVQAMFDTLGIPKS [Q10Y] | 2.49
QLDKNSEVYIEVQAMFDTLGIPKS [Q10I] | 1.39
QLDKNSEVYLEVQAMFDTLGIPKS [Q10L] | 2.18
QLDKNSEVYWEVQAMFDTLGIPKS [Q10W] | 2.3
QLDKNSEVYFEVQAMFDTLGIPKS [Q10F] | 2
QLDKNSEVYTEVQAMFDTLGIPKS [Q10T] | 3.1
QLDKNSEVYMEVQAMFDTLGIPKS [Q10M] | 2.73
QLDKNSEVYPEVQAMFDTLGIPKS [Q10P] | 2.73
QLHKNSEVYQEVQAMFDTLGIPKS [D3H] | 3.43
QLGKNSEVYQEVQAMFDTLGIPKS [D3G] | 3.73
QLSKNSEVYQEVQAMFDTLGIPKS [D3S] | 2.93
QLRKNSEVYQEVQAMFDTLGIPKS [D3R] | 3.21
QLMKNSEVYQEVQAMFDTLGIPKS [D3M] | 2.16
QLEKNSEVYQEVQAMFDTLGIPKS [D3E] | 3.87
QLIKNSEVYQEVQAMFDTLGIPKS [D3I] | 1.95
QLCKNSEVYQEVQAMFDTLGIPKS [D3C] | 2.21
QLNKNSEVYQEVQAMFDTLGIPKS [D3N] | 3.47
QLQKNSEVYQEVQAMFDTLGIPKS [D3Q] | 2.75

Variant | protein stability index
QLTKNSEVYQEVQAMFDTLGIPKS [D3T] | 3.06
QLAKNSEVYQEVQAMFDTLGIPKS [D3A] | 3.46
QLPKNSEVYQEVQAMFDTLGIPKS [D3P] | 3.11
QLYKNSEVYQEVQAMFDTLGIPKS [D3Y] | 2.49
QLLKNSEVYQEVQAMFDTLGIPKS [D3L] | 2.06
QLWKNSEVYQEVQAMFDTLGIPKS [D3W] | 2.08
QLKKNSEVYQEVQAMFDTLGIPKS [D3K] | 3.45
QLFKNSEVYQEVQAMFDTLGIPKS [D3F] | 2.73
QLVKNSEVYQEVQAMFDTLGIPKS [D3V] | 2.67
VLDKNSEVYQEVQAMFDTLGIPKS [Q1V] | 2.7
YLDKNSEVYQEVQAMFDTLGIPKS [Q1Y] | 2.62
SLDKNSEVYQEVQAMFDTLGIPKS [Q1S] | 2.96
WLDKNSEVYQEVQAMFDTLGIPKS [Q1W] | 2.88
TLDKNSEVYQEVQAMFDTLGIPKS [Q1T] | 3.18
QLDKISEVYQEVQAMFDTLGIPKS [N5I] | 2.88
QLDKSSEVYQEVQAMFDTLGIPKS [N5S] | 3.97
QLDKESEVYQEVQAMFDTLGIPKS [N5E] | 3.86
QLDKASEVYQEVQAMFDTLGIPKS [N5A] | 3.56
QLDKFSEVYQEVQAMFDTLGIPKS [N5F] | 3.41
QLDKTSEVYQEVQAMFDTLGIPKS [N5T] | 4.11
QLDKPSEVYQEVQAMFDTLGIPKS [N5P] | 4.37
QLDKGSEVYQEVQAMFDTLGIPKS [N5G] | 3.98
QLDKRSEVYQEVQAMFDTLGIPKS [N5R] | 3.55
QLDKKSEVYQEVQAMFDTLGIPKS [N5K] | 3.88

Variant | protein stability index
QLDKQSEVYQEVQAMFDTLGIPKS [N5Q] | 4.22
QLDKYSEVYQEVQAMFDTLGIPKS [N5Y] | 2.83
QLDKCSEVYQEVQAMFDTLGIPKS [N5C] | 3.37
QLDKLSEVYQEVQAMFDTLGIPKS [N5L] | 2.69
QLDKHSEVYQEVQAMFDTLGIPKS [N5H] | 3.94
QLDKWSEVYQEVQAMFDTLGIPKS [N5W] | 2.91
QLDKMSEVYQEVQAMFDTLGIPKS [N5M] | 3.24
QLDKVSEVYQEVQAMFDTLGIPKS [N5V] | 3.99
QLDKDSEVYQEVQAMFDTLGIPKS [N5D] | 4.66
QLDKNCEVYQEVQAMFDTLGIPKS [S6C] | 2.77
QLDKNGEVYQEVQAMFDTLGIPKS [S6G] | 3.56
QLDKNQEVYQEVQAMFDTLGIPKS [S6Q] | 3.14
QLDKNIEVYQEVQAMFDTLGIPKS [S6I] | 2.69
QLDKNAEVYQEVQAMFDTLGIPKS [S6A] | 3.6
QLDKNWEVYQEVQAMFDTLGIPKS [S6W] | 2.32
QLDKNNEVYQEVQAMFDTLGIPKS [S6N] | 3.29
QLDKNLEVYQEVQAMFDTLGIPKS [S6L] | 2.66
QLDKNPEVYQEVQAMFDTLGIPKS [S6P] | 4
QLDKNVEVYQEVQAMFDTLGIPKS [S6V] | 3.47
QLDKNREVYQEVQAMFDTLGIPKS [S6R] | 2.88
QLDKNYEVYQEVQAMFDTLGIPKS [S6Y] | 2.71
QLDKNKEVYQEVQAMFDTLGIPKS [S6K] | 3.23
